The target of test [1] is Gp22 (ALY06965.1), receptor-binding protein of C. difficile phage CDHS-1 (Clostridium difficile phage CDHS-1). Put plainly: SEC. A general note: SEC sorts molecules by how far they enter the pores of the column.
Another test deals with GST. The test is described as follows: SEC.

The values below come from article doi:10.1101/2021.07.05.451159.

In general, stoichiometry N refers to the number of molecules, sites or subunits per partner or assembly.

In turn, “Gp22 (ALY06965.1), receptor-binding protein of C. difficile phage CDHS-1 (natural protein)” registered a stoichiometry N in test [1] of 2. As to GST (natural protein), the stoichiometry N in the test with GST is 2.
